Patent publication US20250186602A1, “HUMANIZED ANTIBODY THAT BONDS TO EVA1 PROTEIN OR FUNCTIONAL FRAGMENT THEREOF, ANTIBODY-DRUG CONJUGATE AND CHIMERIC ANTIGEN RECEPTOR” (CURED INC., priority 2022, published 2025)
Entries after “also recorded” stand apart in the source; their conditions may differ.

Assays:
Eval-positive HuCCT-1 = assay: Amplification of Eval-CAR-T after antigen stimulation (co-culture with irradiated Eval-positive HuCCT-1); type: cell-based, human
Description: Eval-positive HuCCT-1, was irradiated with a radioactive ray of 100 Gy, and was co-cultured with the CAR-Ts in 1:1, and the amplification efficiencies of these were analyzed. In FIG. 3J, amplification efficiencies in time series are shown. In FIG. 3K, the amplification factors at Day 4 were plotted.
In the same manner as described above, Eval-positive HuCCT-1, was irradiated with a radioactive ray of 100 Gy, and was co-cultured with the CAR-T-cells in 1:1. Then, 50 U/ml of IL-2 was added once every three days, at Day 1, 4, and 7, followed by culturing. In FIG. 3L, the respective amplification efficiencies in time series are shown. In FIG. 3M, the amplification factors at Day 18 were plotted.
In the same manner as described above, Eval-positive HuCCT-1, was irradiated with a radioactive ray of 100 Gy, and was co-cultured with hEva1 CAR-T-cells in 1:1.
In the same manner as described above, Eval-positive HuCCT-1, was irradiated with a radioactive ray of 100 Gy, and was co-cultured with hEva1-CAR-Ts in 1:1.

[1] = system: various tumor cell lines (Eval positive and Eval negative); assay: Cytokine production of Eval-CAR-T co-cultured with tumor cell lines (intracellular staining, flow cytometry); type: cell-based, human; conditions: co-culture 1:1, 6 hours, Day 17 cells
Description: Next, the cytokine production capacity of the Eval-CAR-T using the anti-human Eval mouse antibody sequence was analyzed. Specifically, CAR-T prepared as described above was cultured until day 17, and the cells were co-cultured with various main cell lines in 1:1. After co-culturing for 6 hours, immobilization and intracellular staining (BD cytofix/cytoperm buffer) were conducted to stain the cells with IFN-gamma (IFN-γ).
The experiment was conducted by using the above-described Eval-CAR-Ts at Day 17. Specifically, the Eval-CAR-Ts were co-cultured with tumor cell lines in 1:1, and the cells were immobilized and stained in the same methods as described above after 6 hours, and intracellular IFN-gamma and IL-2 were evaluated with flow cytometry.
(§1) The experiment was conducted by using hEva1-CAR-Ts at Day 17. Specifically, hEva1-CAR-Ts were co-cultured with tumor cell lines in 1:1, and the cells were immobilized and stained in the same manner as described above after 6 hours, and intracellular IFN-gamma and IL-2 were evaluated with flow cytometry. These figures show the percentages at which the cytokine was positive among the CD8 positive cells.
as §1, with “using the above-described” for “using”, “Specifically, the” for “Specifically,”, “after […]” for “after 6”, “which each” for “which the”

hEva1-mouse Fc [2] = target: T1, hEva1-mouse Fc (human, UniProt O60487 27-154, limits assumed); assay: SPR (BiaCore T200), single-cycle kinetics; antibody captured by anti-human IgG on CM5 chip, hEva1-mouse Fc as analyte; antibody made in CHO cells
T1 construct: SPR analyte; the '1' is probably the first concentration (1 nM); also called hEva1-mouse Fc1 (so in the source); not shown: mouse Fc
T1 sequence: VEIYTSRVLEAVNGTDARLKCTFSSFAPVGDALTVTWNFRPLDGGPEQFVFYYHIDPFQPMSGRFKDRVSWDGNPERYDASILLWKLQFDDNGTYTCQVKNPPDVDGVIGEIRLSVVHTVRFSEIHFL

hEva1-mouse Fc [3] = target: T1, hEva1-mouse Fc; assay: SPR (BiaCore T200), single-cycle kinetics; antibody captured by anti-human IgG on CM5 chip, hEva1-mouse Fc as analyte; antibody made in HEK293T cells
Description: (§2) The dissociation constants and association constants of the humanized antibodies and the like were analyzed by using surface plasmon resonance (SPR, product name: BiaCore T200 (manufactured by GE healthcare)).
Specifically, first, human IgG capture antibodies were immobilized on a CM5 chip by an amine coupling method. […] Then, the kinetics analysis on the anti-Eval antibody and hEva1 was conducted by a single-cycle method using the following measurement conditions.

hEva1-mouse Fc [4] = assay: Surface plasmon resonance kinetics analysis (BiaCore T200, single-cycle); type: binding, human; conditions: SPR, antibody captured 5 nM, analyte hEva1-mouse Fc 1-250 nM, HBS-EP+ pH 7.4
Description: as §2
Specifically, first, human IgG capture antibodies were immobilized on a CM5 chip by an amine coupling method. This immobilization was conducted in both reference cells and active cells. Then, the kinetics analysis on the anti-Eval antibody and hEva1 was conducted by a single-cycle method using the following measurement conditions.
• Sample compartment temperature: 10° C. • Running buffer: HBS-EP+buffer, pH 7.4 • Capturing molecule: Human IgG antibody, reference & active cells • Ligand: Various antibodies 5 nM, active cells only • Analyte: hEva1-mouse Fc1, 5, 25, 125, 250 nM, reference & active cells • Regeneration buffer: 3M MgCl2, reference & active cells • 3 cycles of Blanks (Analyte zero concentration)

[5] = 50 U/ml IL-2 at Day 1, 4, 7, co-culture 1:1 with HuCCT-1 irradiated 100 Gy
[6] = absence of IL-2, co-culture 1:1 with HuCCT-1 irradiated 100 Gy

| Molecule | ka (hEva1-mouse Fc [4]) | kd (hEva1-mouse Fc [4]) | other results |
| --- | --- | --- | --- |
| 15aa: mouse antibody-derived Eval-CAR-T with spacer length 15aa (SEQ ID NO: 59) (EPKSSDKTHTSPPCP; Hinge region:15aa) |  |  | amplification efficiency after Eval stimulation (Eval-positive HuCCT-1; [5]): cell amplifications tended to be better; also recorded: most excellent in cell growth; amplification efficiency after Eval stimulation (Eval-positive HuCCT-1; [6]): higher cell amplifications |
| 30aa: mouse antibody-derived Eval-CAR-T with spacer length 30aa (SEQ ID NO: 60) (EPKSSDKTHTSPPCPAPEFLGGPSVFLFPP; Hinge region:30aa) |  |  | cytokine production (intracellular IFN-gamma and IL-2) [1]: excellent cytokine productions; amplification efficiency after Eval stimulation (Eval-positive HuCCT-1; [5]): cell amplifications tended to be better; amplification efficiency after Eval stimulation (Eval-positive HuCCT-1; [6]): higher cell amplifications |
| chimeric human IgG1 (constant regions of the B2E5-48 mouse antibody replaced by those of human IgG type 1) (antibody, V domains shown, Mouse B2E5-48 variable regions on human IgG1 constant regions; The same construct was made in HEK293T cells and in CHO cells and both preparations were measured; also called Chimeric antibody (CHO); Chimeric antibody (293T)) VH: QVQLQQPGAELVKPGASVKLSCKASGYTFTNYWMHWVKLRPGQGFEWIGEINPTNGGTDYNEKFKRKATLTVDKSSSTAYMQLSSLTSEDSAVYYCTIYTTALDYWGQGTTLTVSS VL: QIVLTQSPALMSASPGERVTLTCSASSSVGYMYWYQQKPGSSPKPWIYVTSNLASGVPARFSGSGSGTSYSLTISSMEAEDAATYYCQQWSSNPPTFGAGTKLELK |  |  | Kd (hEva1-mouse Fc [2]): 445 nM; koff (hEva1-mouse Fc [2]): 0.00845 s⁻¹; kon (hEva1-mouse Fc [2]): 19000 M⁻¹ s⁻¹; Kd (hEva1-mouse Fc [3]): 482 nM; koff (hEva1-mouse Fc [3]): 0.00947 s⁻¹; kon (hEva1-mouse Fc [3]): 19600 M⁻¹ s⁻¹ |
| Chimeric antibody (293T): chimeric human IgG1 obtained by substituting the constant regions of the B2E5-48 mouse antibody with those of human IgG type 1; control (antibody, V domains shown) VH: QVQLQQPGAELVKPGASVKLSCKASGYTFTNYWMHWVKLRPGQGFEWIGEINPTNGGTDYNEKFKRKATLTVDKSSSTAYMQLSSLTSEDSAVYYCTIYTTALDYWGQGTTLTVSS VL: QIVLTQSPALMSASPGERVTLTCSASSSVGYMYWYQQKPGSSPKPWIYVTSNLASGVPARFSGSGSGTSYSLTISSMEAEDAATYYCQQWSSNPPTFGAGTKLELK | 19640 M⁻¹ s⁻¹ | 0.00947 s⁻¹ |  |
| Chimeric antibody (CHO): chimeric human IgG1 obtained by substituting the constant regions of the B2E5-48 mouse antibody with those of human IgG type 1; control (antibody, V domains shown) VH: QVQLQQPGAELVKPGASVKLSCKASGYTFTNYWMHWVKLRPGQGFEWIGEINPTNGGTDYNEKFKRKATLTVDKSSSTAYMQLSSLTSEDSAVYYCTIYTTALDYWGQGTTLTVSS VL: QIVLTQSPALMSASPGERVTLTCSASSSVGYMYWYQQKPGSSPKPWIYVTSNLASGVPARFSGSGSGTSYSLTISSMEAEDAATYYCQQWSSNPPTFGAGTKLELK | 19010 M⁻¹ s⁻¹ | 0.008447 s⁻¹ |  |
| H3-L4: humanized B2E5-48 IgG1, VH H3 (SEQ ID NO: 16), VL L4 (SEQ ID NO: 8) (antibody, V domains shown, Variable Region of Heavy Chain 3 (Humanized B2E5-48); Variable Region of Light Chain 4 (Humanized B2E5-48)) VH: QVQLVQSGSELKKPGASVKVSCKASGYTFTNYWMHWVRQAPGQGLEWIGEINPTNGGTDYNEGFTGRFVLSVDKSSSTAYLQISSLKAEDTAVYYCTIYTTALDYWGQGTLVTVSS VL: DIQLTQSPSFLSASVGDRVTITCRASSSVGYMYWYQQKPGKAPKPLIYVTSNLASGVPSRFSGSGSGTEYTLTISSLQPEDFATYYCQQWSSNPPTFGQGTKLEIK | 15800 M⁻¹ s⁻¹ | 0.0138 s⁻¹ |  |
| H4-L3: humanized B2E5-48 IgG1, VH H4 (SEQ ID NO: 14), VL L3 (SEQ ID NO: 10) (antibody, V domains shown, Variable Region of Heavy Chain 4 (Humanized B2E5-48); Variable Region of Light Chain 3 (Humanized B2E5-48)) VH: QVQLVQSGSELKKPGASVKVSCKASGYTFTNYWMHWVRQAPGQGLEWMGEINPTNGGTDYNEGFTGRFVFSVDKSVSTAYLQISSLKAEDTAVYYCTIYTTALDYWGQGTLVTVSS VL: QIQLTQSPSFLSASVGDRVTITCRASSSVGYMYWYQQKPGKAPKPLIYVTSNLASGVPSRFSGSGSGTEYTLTISSLQPEDFATYYCQQWSSNPPTFGQGTKLEIK | 15480 M⁻¹ s⁻¹ | 0.01357 s⁻¹ |  |
| H4-L4: humanized B2E5-48 IgG1, VH H4 (SEQ ID NO: 14), VL L4 (SEQ ID NO: 8) (antibody, V domains shown, Variable Region of Heavy Chain 4 (Humanized B2E5-48); Variable Region of Light Chain 4 (Humanized B2E5-48)) VH: QVQLVQSGSELKKPGASVKVSCKASGYTFTNYWMHWVRQAPGQGLEWMGEINPTNGGTDYNEGFTGRFVFSVDKSVSTAYLQISSLKAEDTAVYYCTIYTTALDYWGQGTLVTVSS VL: DIQLTQSPSFLSASVGDRVTITCRASSSVGYMYWYQQKPGKAPKPLIYVTSNLASGVPSRFSGSGSGTEYTLTISSLQPEDFATYYCQQWSSNPPTFGQGTKLEIK | 15340 M⁻¹ s⁻¹ | 0.01525 s⁻¹ |  |
| H4-L2: humanized B2E5-48 IgG1, VH H4 (SEQ ID NO: 14), VL L2 (SEQ ID NO: 7) (antibody, V domains shown, Variable Region of Heavy Chain 4 (Humanized B2E5-48); Variable Region of Light Chain 2 (Humanized B2E5-48)) VH: QVQLVQSGSELKKPGASVKVSCKASGYTFTNYWMHWVRQAPGQGLEWMGEINPTNGGTDYNEGFTGRFVFSVDKSVSTAYLQISSLKAEDTAVYYCTIYTTALDYWGQGTLVTVSS VL: EIVLTQSPATLSLSPGERATLSCRASSSVGYMYWYQQKPGQAPRPLIYVTSNRATGIPARFSGSGSGTDYTLTISSLEPEDFAVYYCQQWSSNPPTFGQGTKLEIK | 18980 M⁻¹ s⁻¹ | 0.01457 s⁻¹ |  |
| 125aa: mouse antibody-derived Eval-CAR-T with spacer length 125aa (SEQ ID NO: 62) (protein, Hinge region:125aa) EPKSSDKTHTSPPCPAPEFLGGPSVFLFPPKPKDTLMISRTPEVTCVVVDVSQEDPEVQFNWYVDGVEVHNAKTKPREEQFNSTYRVVSVLTVLHQDWLNGKEYKCKVSNKGLPSSIEKTISKAK |  |  | cytokine production (intracellular IFN-gamma and IL-2) [1]: excellent cytokine productions |
